Assay results reported in patent US20100247589A1.
Where no end group is shown, it is not given here. The star is where a group is joined. Biotin = O=C1N[C@H]2[C@H](CS[C@H]2CCCCC(=O)*)N1

biological target: tooth pellicle (thin film derived from salivary glycoproteins, formed in a human mouth) (human); assay: phage ELISA on 30 min pellicle-coated bovine enamel, anti-M13-HRP, normalized to DenP3; no-phage control 0.094

O.D.450 (normalized) | Binder
0.641 | NLHSPWPSHAAHHWST [DenP118]
0.413 | FPSKWYNHHRHITGHV [DenP112]
0.716 | WHEPHQFSGENTDYSSSMGT [DenP109]
1.05 | NQQMKLVPQHWHRAQP [DenP119]
1.05 | HDHLSWWGQFDRQNLL [DenP116]
1.35 | GGMGALESYRQWNHLA [DenP113]
0.47 | QFNQTSHSFMHGTSGYVPGK [DenP105]
0.52 | EFYPFAEVPPEKSGIGRQVF [DenP102]
1.05 | DGYKLQTSLDWQMWNP [DenP111]
0.879 | GVHQYSRPTVPSYLWTSGQH [DenP103]
1 | TTYHYKNIYQESYQQRNPAV [DenP3]
0.79 | GYQPHYVDHTIGWQPMIRPN [DenP104]
1.52 | SFSWHRGDWELGHQSKTMGM [DenP106]
0.703 | GINKGQRPPWESWHEN [DenP114]
0.726 | SMWHDITKRYRNPSEMVSAY [DenP107]
0.433 | MPGHQESIKVQNWNRV [DenP117]
0.467 | AIEYQHSATTPWTMRTRLPP [DenP101]
0.501 | GYGQYVSQQTWAHSNK [DenP115]
1.15 | THGNKHQSWTYPSEINHKNY [DenP108]

biological target: tooth pellicle (thin film derived from salivary glycoproteins, formed in a human mouth) (human); assay: ELISA, 20 uM biotinylated peptide on pellicle-coated bovine enamel, streptavidin-HRP, normalized to DenP03; no-peptide control -0.001

O.D.450 (normalized) | Binder
0.811 | SSRPAPPTYQTASYPHNLPSKRKMK(Biotin) [DenP28-A]
1.14 | SSRPHKNENIMQYNVNDRWHITPAK(Biotin) [DenP32-A]
0.468 | SSRPQVPDYLSPTHQKKAFLEIPTK(Biotin) [DenP29-A]
1 | SSRPTTYHYKNIYQESYQQRNPAVK(Biotin) [DenP3-A]

biological target: tooth pellicle (thin film derived from salivary glycoproteins, formed in a human mouth) (human); assay: phage ELISA on pellicle-coated bovine enamel, anti-M13-HRP, normalized to internal control

O.D.450 (normalized) | Binder
2.5 | TTYHYKNIYQESYQQRNPAV [DenP3]

biological target: tooth pellicle (thin film derived from salivary glycoproteins, formed in a human mouth) (human); assay: ELISA titration of biotinylated peptide on pellicle-coated bovine enamel, streptavidin-alkaline phosphatase, 4-MUP fluorescence, Scatchard plot

MB50 | Binder
25 µM | SSRPHKNENIMQYNVNDRWHITPAK(Biotin) [DenP32-A]
28 µM | SSRPTTYHYKNIYQESYQQRNPAVK(Biotin) [DenP3-A]
